Measurements taken from IntAct's records for PubMed 16606821.

B1: Insulin-induced gene 1 protein (Homo sapiens), O15503-1 (parent)
chain: MPRLHDHFWSCSCAHSARRRGPPRASAAGLAAKVGEMINVSVSGPSLLAAHGAPDADPAPRGRSAAMSGPEPGSPYPNTWHHRLLQRSLVLFSVGVVLALVLNLLQIQRNVTLFPEEVIATIFSSAWWVPPCCGTAAAVVGLLYPCIDSHLGEPHKFKREWASVMRCIAVFVGINHASAKLDFANNVQLSLTLAALSLGLWWTFDRSRSGLGLGITIAFLATLITQFLVYNGVYQYTSPDFLYIRSWLPCIFFSGGVTVGNIGRQLAMGVPEKPHSD
partner: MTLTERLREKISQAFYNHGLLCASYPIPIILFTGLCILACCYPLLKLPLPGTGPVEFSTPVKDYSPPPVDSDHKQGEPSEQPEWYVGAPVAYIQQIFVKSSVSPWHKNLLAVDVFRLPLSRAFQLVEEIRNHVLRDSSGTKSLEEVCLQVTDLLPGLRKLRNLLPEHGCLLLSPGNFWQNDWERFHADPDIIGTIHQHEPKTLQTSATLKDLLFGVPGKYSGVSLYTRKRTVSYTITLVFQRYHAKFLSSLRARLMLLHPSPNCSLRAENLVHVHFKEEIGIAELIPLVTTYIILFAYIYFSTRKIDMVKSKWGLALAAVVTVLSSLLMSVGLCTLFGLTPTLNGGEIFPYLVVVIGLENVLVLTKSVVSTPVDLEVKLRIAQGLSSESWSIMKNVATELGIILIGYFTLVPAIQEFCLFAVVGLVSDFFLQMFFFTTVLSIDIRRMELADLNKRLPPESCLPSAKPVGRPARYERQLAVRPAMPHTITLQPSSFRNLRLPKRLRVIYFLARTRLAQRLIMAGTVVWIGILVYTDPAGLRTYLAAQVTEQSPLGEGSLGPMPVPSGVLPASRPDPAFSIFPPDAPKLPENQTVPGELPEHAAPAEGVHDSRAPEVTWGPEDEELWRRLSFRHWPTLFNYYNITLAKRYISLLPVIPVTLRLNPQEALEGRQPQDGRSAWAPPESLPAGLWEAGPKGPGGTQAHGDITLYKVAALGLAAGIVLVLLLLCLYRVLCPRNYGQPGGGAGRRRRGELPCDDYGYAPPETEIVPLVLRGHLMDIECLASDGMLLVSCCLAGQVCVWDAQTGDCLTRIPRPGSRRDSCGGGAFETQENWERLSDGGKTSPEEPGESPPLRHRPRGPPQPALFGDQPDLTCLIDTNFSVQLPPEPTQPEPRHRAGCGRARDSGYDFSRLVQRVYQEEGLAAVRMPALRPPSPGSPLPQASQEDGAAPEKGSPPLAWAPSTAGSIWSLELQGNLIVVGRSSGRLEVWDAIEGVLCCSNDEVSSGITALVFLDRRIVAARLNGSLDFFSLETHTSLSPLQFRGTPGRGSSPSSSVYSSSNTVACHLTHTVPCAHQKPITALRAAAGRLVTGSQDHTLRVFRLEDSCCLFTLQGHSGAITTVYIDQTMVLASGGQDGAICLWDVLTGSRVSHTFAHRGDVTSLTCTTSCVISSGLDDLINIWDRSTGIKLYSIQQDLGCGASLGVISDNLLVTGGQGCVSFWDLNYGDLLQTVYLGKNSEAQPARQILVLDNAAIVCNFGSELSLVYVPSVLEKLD

Variants of: B1
Details: with scap_crigr SCAP

Row | Variant | effect of a mutation on the interaction
1 | MPRLHDHFWSCSCAHSARRRGPPRASAAGLAAKVGEMINVSVSGPSLLAAHGAPDADPAPRGRSAAMSGPEPGSPYPNTWHHRLLQRSLVLFSVGVVLALVLNLLQIQRNVTLFPEEVIATIFSSAWWVPPCCGTAAAVVGLLYPCIDSHLGEPHKFKREWASVMRCIAVFVGINHASAKLDFANNVQLSLTLAALSLGLWWTFARSRSGLGLGITIAFLATLITQFLVYNGVYQYTSPDFLYIRSWLPCIFFSGGVTVGNIGRQLAMGVPEKPHSD [D205A] | disrupting interaction strength
